Experimental data: the supplement of paper PMC10567573

B1: ADAMTS4 (parent)
chain: SFRKFRYGYNNVVTIPAGATHILV

Variants of: B1
Experiment: protein stability index of a GFP-peptide fusion (GPS, HEK-293T) (PSI 1-6); higher = more stable
Conditions: c terminus: a fixed tail appended
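Further: lentivirally expressed fusions sorted by FACS into six bins by GFP to DsRed ratio, PSI derived from sequencing read proportions per bin multiplied by bin number.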

Protein stability index, by site and new letter:
R3: H 1.76
V13: N 2.04 | Q 1.8 | R 3.77 | G 2.1 | H 1.74 | E 2.73 | L 3.1 | M 1.9 | K 1.97 | F 2.6 | T 2.11 | D 2.74 | I 2.07 | S 1.82 | A 3.18 | P 2.12 | Y 1.49 | W 3.05 | C 2.92
Y7: R 2.8 | I 2.89 | F 3.04 | T 3.1 | M 3.02 | D 2.07 | E 2.63 | P 2.83 | Q 2.24 | H 1.77 | V 2.81 | A 3.52 | W 2 | L 2.46 | C 2.84 | K 2.92 | N 2.43 | S 2.19
F5: M 3.23 | E 2.51 | V 3.85 | L 2.78 | N 1.84 | R 3.02 | D 2.21 | A 2.44 | G 2.3 | P 1.88 | Y 1.98 | W 2.87 | K 1.77 | S 1.87 | H 1.66 | T 2.98 | Q 1.92
N11: C 2.42 | G 2.89 | E 2.07 | D 2.92 | R 1.57 | Y 1.19 | A 3.51 | V 2.57 | L 1.53 | T 2.59 | P 2.59 | F 1.71 | Q 1.56 | W 1.9 | H 3.34 | K 1.61 | S 2.94 | M 2.27 | I 2.04
K4: Y 3.11 | G 2.05 | S 2.6 | N 3.74 | Q 3.78 | T 2.68 | V 1.97 | D 1.76 | W 3.02 | R 2.88 | H 2.56 | L 2.71 | P 3.29 | C 2.55 | E 1.51 | A 3.08 | F 2.78 | M 2.08
V12: P 2.13 | T 3.03 | M 2.29 | I 3.16 | F 1.71 | H 2.33 | K 2.34 | L 2.58 | G 3.44 | Q 1.26 | N 1.87 | W 2.09 | A 2.25 | E 2.4 | R 1.7 | C 2.95 | D 3.98 | S 2.08 | Y 2.88
P16: E 2.83 | G 2.36 | D 3.51 | S 2.5 | Q 2.25 | K 2.19 | A 2.65 | V 1.87 | M 2.59 | F 2.57 | I 2.63 | R 1.76 | H 2.4 | C 2.46 | T 1.36 | Y 2.49 | W 2.05 | L 1.81
T14: R 1.93 | C 1.81 | P 1.6 | A 1.42 | W 3.53 | V 2.61 | E 2.79 | F 2.74 | G 1.33 | K 3.9 | S 2.65 | I 2.36 | D 3.24 | H 2.92 | L 2.38 | Q 2.2 | M 3 | N 3.6 | Y 2.27
Y9: H 2.36 | E 1.71 | G 3.68 | T 2.05 | F 1.72 | W 3.46 | A 3.15 | R 2.46 | I 2.46 | Q 2.01 | D 2.86 | N 2.14 | P 1.76 | L 2.75 | K 2.07 | S 1.78 | V 1.65 | M 1.9 | C 1.55
